How the values were obtained:
Assay in all cases: ELISA, peptide 2 µg/mL, mAb 5 µg/mL
[1] = target: NM10
[2] = target: NM11
[3] = target: NM16
[4] = target: NM9

Binder | binding activity (ELISA A450) [1] | binding activity (ELISA A450) [2] | binding activity (ELISA A450) [3] | binding activity (ELISA A450) [4]
23K12 (antibody, V domains shown) VH: EVQLVESGGGLVQPGGSLRISCAASGFTVSSNYMSWVRQAPGKGLEWVSVIYSGGSTYYADSVKGRFSFSRDNSKNTVFLQMNSLRAEDTAVYYCARCLSRMRGYGLDVWGQGTTVTVS VL: DIQMTQSPSSLSASVGDRVTITCRTSQSISSYLNWYQQKPGKAPKLLIYAASSLQSGVPSRFSGSGSGTDFTLTISGLQPEDFATYYCQQSYSMPAFGQGTKLEIK | 0.24 | 0.3 | 0.62 | 0.3
8i10 (antibody, V domains shown) VH: QVQLQESGPGLVKPSETLSLTCTVSGSSISNYYWSWIRQSPGKGLEWIGFIYYGGNTKYNPSLKSRVTISQDTSKSQVSLTMSSVTAAESAVYFCARASCSGGYCILDYWGQGTLVTVS VL: DIQMTQSPSSLSASVGDRVTITCRASQNIYKYLNWYQQRPGKAPKGLISAASGLQSGVPSRFSGSGSGTDFTLTITSLQPEDFATYYCQQSYSPPLTFGGGTRVEIK | 0.1 | 0.13 | 0.29 | 0.12

From patent US20130158238A1 (THERACLONE SCIENCES, published 2013)
